The source of these data is the Immune Epitope Database (IEDB).

Test [1] addresses HLA-B*15:03. The experiment in a line: IEDB peptide-MHC binding, purified MHC/competitive/radioactivity; filed as Kd, often an IC50 or EC50 that approximates it; ≥ and ≤ were set here for values at or beyond the usual limits of such assays.
Test [2] has as its target HLA-A*11:01. Kind of test: IEDB peptide-MHC binding, purified MHC/competitive/fluorescence; ≥ and ≤ were set here for values at or beyond the usual limits of such assays.
The target in test [3] is HLA-A*02:01. Kind of test: IEDB peptide-MHC binding, purified MHC/competitive/radioactivity; filed as Kd, often an IC50 or EC50 that approximates it; ≥ and ≤ were set here for values at or beyond the usual limits of such assays.
The target of test [4] is HLA-A*02:02. The test is described as above.
Test [5] concerns the target HLA-A*02:03. The test is described as above.
Test [6] has as its target HLA-A*02:06. Described as above.
Test [7] deals with HLA-A*68:02. Described as above.
The target of test [8] is HLA-A*30:01. The description is as above.
The target in test [9] is HLA-A*32:01. The test is described as above.
Test [10] addresses HLA-B*08:01. Described as above.
The target in test [11] is HLA-B*15:01. The description is as above.
Test [12] deals with HLA-A*03:01. The description is as above. The following applies: source organism: Vaccinia virus WR.
Test [13] has as its target HLA-A*11:01. The description is as above. The conditions noted are these: source organism: Vaccinia virus WR.
In test [14] the target is HLA-A*31:01. The test is described as above. The conditions noted are these: source organism: Vaccinia virus WR.
Test [15] addresses HLA-A*33:01. The test is described as above. The conditions noted are these: source organism: Vaccinia virus WR.
Test [16] deals with HLA-A*68:01. The description is as above. The conditions noted are these: source organism: Vaccinia virus WR.
The target of test [17] is HLA-A*01:01. Kind of test: IEDB peptide-MHC binding, purified MHC/direct/fluorescence; filed as Kd, often an IC50 or EC50 that approximates it; ≥ and ≤ were set here for values at or beyond the usual limits of such assays. The following applies: source organism: Orthohantavirus negraense.
The target in test [18] is HLA-A*68:02. The test is described as above. The following applies: source organism: Orthohantavirus tulaense.
The target of test [19] is HLA-A*03:01. Kind of test: IEDB peptide-MHC binding, purified MHC/competitive/fluorescence; filed as Kd, often an IC50 or EC50 that approximates it; ≥ and ≤ were set here for values at or beyond the usual limits of such assays. The conditions noted are these: source organism: Orthohantavirus tulaense.
The target in test [20] is HLA-A*26:01. The description is as above. The conditions noted are these: source organism: Orthohantavirus tulaense.
Test [21] deals with HLA-A*69:01. The test is described as above. The conditions noted are these: source organism: Orthohantavirus tulaense.
The target of test [22] is HLA-B*15:17. The test is described as above. The following applies: source organism: Orthohantavirus tulaense.
Test [23] addresses HLA-B*27:03. The description is as above. The conditions noted are these: source organism: Orthohantavirus tulaense.
In test [24] the target is HLA-B*39:01. The description is as above. The conditions noted are these: source organism: Orthohantavirus tulaense.
Test [25] has as its target HLA-B*46:01. The test is described as above. The conditions noted are these: source organism: Orthohantavirus tulaense.
For test [26], the target named is HLA-B*51:01. Described as above. The following applies: source organism: Orthohantavirus tulaense.
In test [27] the target is HLA-B*57:01. Described as above. The following applies: source organism: Orthohantavirus tulaense.
The mark [28] stands for this setting: source organism: Vaccinia virus WR.
[29] abbreviates: source organism: Vaccinia virus Copenhagen.
The mark [30] stands for this setting: source organism: Trypanosoma cruzi.

By Kd is commonly meant the concentration at which binding is half-saturated. As for TMVNSLTYF, the Kd in [1] (setting [28]) stood at 0.126 nM.

Usually IC50 stands for the point on the concentration scale where inhibition reaches its midpoint. A lower IC50 goes with inhibition by little substance. In turn, LGGILPWTK registered a concentration for half-maximal inhibition (IC50) in [2] (setting [28]) of 536 nM.

Take ISAFPKNDF: the Kd in [1] (setting [28]) was 663 nM.

EIFSAWISH: the IC50 in [2] (source organism: Variola virus) stood at 22600 nM.

In turn, TQALQLFLR had a concentration for half-maximal inhibition (IC50) in test [2] (source organism: Sudan ebolavirus) of 2530 nM.

In the case of FSALPTNEF, the dissociation constant Kd in test [1] (setting [28]) was determined as 0.13 nM.

Turning to ELEQTYHAKL, the dissociation constant Kd in test [3] (source organism: Homo sapiens) was not below 40200 nM; in test [4] (source organism: Homo sapiens) it was 2840 nM; in test [5] (source organism: Homo sapiens), not below 94300 nM; in [6] (source organism: Homo sapiens), not below 71200 nM; in test [7] (source organism: Homo sapiens) it was 9730 nM.

In the case of LSTTRFQSM, the Kd in test [8] (setting [28]) was 1080 nM; in test [9] (setting [28]) it was 9770 nM; in test [10] (setting [28]), 3970 nM; in [11] (setting [28]) it was 5820 nM; in test [1] (setting [28]), 2500 nM.

KAFNHASVK: the Kd was 6.13 nM in [12]; 9.31 nM in test [13]; 34.7 nM in [8] (setting [28]); 29.7 nM in test [14]; 3640 nM in test [9] (setting [28]); not below 47700 nM in [15]. Moreover, the dissociation constant (Kd) in test [16] stood at 17.6 nM; in test [10] (setting [28]) it was 751 nM; in test [11] (setting [28]), 462 nM; in [1] (setting [28]), 282 nM.

In the case of LLHQSSDKFV, the equilibrium dissociation constant (Kd) was 808 nM in test [3] (source organism: Homo sapiens); 14.4 nM in test [4] (source organism: Homo sapiens); 78.3 nM in test [5] (source organism: Homo sapiens); 13500 nM in test [6] (source organism: Homo sapiens); 2970 nM in test [7] (source organism: Homo sapiens).

Regarding KTMAVTYEL, the Kd stood at 10900 nM in test [8] (setting [29]); 0.578 nM in test [9] (setting [29]); 18.7 nM in test [10] (setting [29]); 5.51 nM in [11] (setting [29]); 34.5 nM in [1] (setting [29]).

Turning to QKFPYEGGK, the half-maximal inhibitory concentration (IC50) in test [2] (source organism: Vaccinia virus) is not below 140000 nM.

As for RQYMFYKIF, the Kd in test [9] (setting [29]) came to 19.3 nM; in test [1] (setting [29]), 0.0698 nM.

FMSRKLHRY: the Kd was 9.5 nM in [17]; not below 20000 nM in test [18]; 8000 nM in [19]; not below 20000 nM in test [20]; not below 20000 nM in test [21]; not below 20000 nM in test [22]. Also, the dissociation constant Kd in test [23], in test [24], in [25], in test [26] and in test [27] was not below 20000 nM throughout.

For the sequence FSNFSTSHI, the Kd in [8] (setting [28]) is 7500 nM; in [9] (setting [28]), 18400 nM; in test [10] (setting [28]), 3110 nM; in test [11] (setting [28]), 110 nM; in [1] (setting [28]) it was 510 nM.

Take LMYILGTYG: the Kd is 3750 nM in test [8] (setting [28]); not below 23300 nM in test [9] (setting [28]); 951 nM in test [10] (setting [28]); 62 nM in test [11] (setting [28]); 125 nM in [1] (setting [28]).

Regarding KLTKDFSAL, the figures for the Kd in test [3] (source organism: Homo sapiens), in test [4] (source organism: Homo sapiens) and in test [5] (source organism: Homo sapiens) were 550 nM, 20.5 nM and 34.2 nM, respectively.

Turning to GLLPLLLLLG, the Kd in test [3] (setting [30]) was determined as 2.69 nM; in test [4] (setting [30]), 79.2 nM; in test [5] (setting [30]), 109 nM; in test [6] (setting [30]), 15.3 nM; in test [7] (setting [30]) it was 7010 nM.

Regarding RLVRPFLVV, in [1] (setting [28]), the Kd was 15.9 nM.

With ISWMMKLGI, the dissociation constant Kd in test [8] (setting [28]) was determined as 6580 nM; in test [9] (setting [28]), 42.1 nM; in [10] (setting [28]) it was 4840 nM; in test [11] (setting [28]) it was 546 nM; in test [1] (setting [28]), 404 nM.

For FSIYSVSCF, the Kd in [11] (setting [29]) stood at 3.1 nM; in test [1] (setting [29]), 7.64 nM.

On to FKAKWLTPF, for which, in test [1] (setting [28]), the dissociation constant (Kd) was 0.0731 nM.
